We go through one molecule from patent US6828106B2, “Methods and compositions using coiled binding partners” (Cyclacel Limited, priority 1999, dated 2004).

The term Km denotes the substrate concentration at which the rate is half of its maximum.

The target of data set [1] is T1, TEV protease (Tobacco etch virus, UniProt P04517).
T1 construct: Proteolytic cleavage was initiated by the addition of TEV protease (20U, Gibco Life Technologies); histidine tag; purchased Gibco Life Technologies
Briefly: TEV protease FP assay with homodimer-forming reporter peptide. It is filed as biochemical. The settings on record: substrate: fluorescein/biotin-labeled reporter peptide homodimer; FIG. 10; read-out: Km of TEV protease by FP analysis. On the procedure:
(§1) TEV protease activity and inhibition of TEV protease activity was determined by using a peptide capable of forming a homodimer, wherein homodimer formation is decreased following TEV protease cleavage of the peptide, according to the following method.
For FP analysis the reporter peptide (sequence recited above) was labeled with fluorescein or with biotin. The labeled peptides were incubated at a total peptide concentration of 6 μM (6:1 ratio, biotin:F) in 50 mM Tris, pH 8, 0.5 mM EDTA, 0.1 mg/ml BSA and 1 mM DTT at 30° C. for 5 minutes in a total volume of 100 μl. Proteolytic cleavage was initiated by the addition of TEV protease (20U), and monitored during the reaction time course by measuring the polarization of fluorescein (excitation 485 nm, emission 520 nm) over time. Initial rates of change of fluorescein polarization were determined for the linear portion of the reaction.
(§2) The activity of the TEV protease inhibitor iodacetamide was determined by FRET or FP assays performed as described above in the absence of iodacetamide or in the presence of 0.05-100 mM iodacetamide added prior to the addition of TEV protease. The results of these experiments are presented in FIG. 9 (FRET assay) and FIG. 11 (FP assay).

The target of data set [2] is T1, TEV protease. Briefly: TEV protease FRET assay with homodimer-forming reporter peptide. It is filed as biochemical. To be noted: substrate: fluorescein/rhodamine-labeled reporter peptide homodimer; FIG. 8; read-out: Km of TEV protease by FRET analysis. On the procedure: as §1
For FRET analysis the reporter peptide (KGR MRCLEDR VENLYSQ SYHLENE VARLRRL VGELAAK) (SEQ ID NO: 32) was labeled with fluorescein or rhodamine. The labeled peptides were incubated at a total peptide concentration of 6 μM (6:1 ratio, R:F) in 50 mM Tris pH 8, and 0.5 mM EDTA, and 1 mM DTT at 30° C. for 15 minutes in a total volume of 100 μl. Proteolytic cleavage was initiated by the addition of TEV protease (20U, Gibco Life Technologies), and monitored during the time course of the reaction by measuring the emission of fluorescein (excitation 485 nm, emission 520 nm) over time. Initial rates of change of fluorescein emission were determined for the linear portion of the reaction.
as §2

B1: TEV protease: Tobacco Etch Virus protease, Gibco Life Technologies (protein)
chain: GESLFKGPRDYNPISSTICHLTNESDGHTTSLYGIGFGPFIITNKHLFRRNNGTLLVQSLHGVFKVKNTTTLQQHLIDGRDMIIIRMPKDFPPFPQKLKFREPQREERICLVTTNFQTKSMSSMVSDTSCTFPSSDGIFWKHWIQTKDGQCGSPLVSTRDGFIVGIHSASNFTNTNNYFTSVPKNFMELLTNQEAQQWVSGWRLNADSVLWGGHKVFMSKPEEPFQPVKEATQLMNELVYSQ
For B1, the Km with TEV protease [1] and in the data set with TEV protease [2] was 36 µM each time.
